Patent US20240327815A1 (Zymeworks, published 2024)

B1: REGN10987 (Imdevimab) (antibody, V domains shown)
VH: QVQLVESGGGVVQPGRSLRLSCAASGFTFSNYAMYWVRQAPGKGLEWVAVISYDGSNKYYADSVKGRFTISRDNSKNTLYLQMNSLRTEDTAVYYCASGSDYGDYLLVYWGQGTLVTVSS
VL: QSALTQPASVSGSPGQSITISCTGTSSDVGGYNYVSWYQQHPGKAPKLMIYDVSKRPSGVSNRFSGSKSGNTASLTISGLQSEDEADYYCNSLTSISTWVFGGGTKLTVLR
B2: Bamlanivimab (antibody, V domains shown)
VH: QVQLVQSGAEVKKPGSSVKVSCKASGGTFSNYAISWVRQAPGQGLEWMGRIIPILGIANYAQKFQGRVTITADKSTSTAYMELSSLRSEDTAVYYCARGYYEARHYYYYYAMDVWGQGTAVTVSS
VL: not shown
B3: REGN10933 (Casirivimab) (antibody, V domains shown)
VH: QVQLVESGGGLVKPGGSLRLSCAASGFTFSDYYMSWIRQAPGKGLEWVSYITYSGSTIYYADSVKGRFTISRDNAKSSLYLQMNSLRAEDTAVYYCARDRGTTMVPFDYWGQGTLVTVSS
VL: DIQMTQSPSSLSASVGDRVTITCQASQDITNYLNWYQQKPGKAPKLLIYAASNLETGVPSRFSGSGSGTDFTFTISGLQPEDIATYYCQQYDNLPLTFGGGTKVEIKR
B4: Etesevimab (antibody, V domains shown)
VH: EVQLVESGGGLVQPGGSLRLSCAASGFTVSSNYMSWVRQAPGKGLEWVSVIYSGGSTFYADSVKGRFTISRDNSMNTLFLQMNSLRAEDTAVYYCARVLPMYGDYLDYWGQGTLVTVSS
VL: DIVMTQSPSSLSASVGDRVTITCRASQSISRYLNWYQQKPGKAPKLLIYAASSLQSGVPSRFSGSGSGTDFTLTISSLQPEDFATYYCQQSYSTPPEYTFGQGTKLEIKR

Assays:
[1] = biological target: T1, full length wild type SARS-CoV-2 spike glycoprotein on pseudotyped lentivirus (SARS-CoV-2, UniProt P0DTC2 14-1273); assay: cell-based or functional assay
[2] = biological target: T1, full length wild type SARS-CoV-2 spike …; assay: cell-based or functional assay; remark: listed apart in the source
[3] = biological target: WT SARS-CoV-2 spike protein, plate-coated (MSD V-Plex) (SARS-CoV-2, UniProt P0DTC2 14-1208); assay: MSD competition vs labelled ACE2

Binder	%-inhibition EC50 (M), pseudovirus neutralization [1]	Bmax (% inhibition) [1]	RLU EC50 (M), pseudovirus neutralization [1]	Pseudovirus Neutralization (IC50, nM) [2]	IC50 [3]
B1	2.9e-09 M	116%	2.9e-09 M	4.76 nM	–
B2	–	100%	–	2.29 nM	–
B3	1.1e-10 M	–	1e-10 M	0.05 nM	–
B4	–	–	–	–	0.51 nM
